The target in test [1] is G protein of RSV B/18537 (ATCC Cat. No. VR-1580), on virus (Respiratory syncytial virus B/18537). The test is described as follows: cell-based or functional assay.
Test [2] concerns the target T1, Sym-1705 (RSV-G type A central region peptide 145-201) (Respiratory syncytial virus type A, not fully specified; N-terminal biotin).
T1 construct: Synthetic peptide
T1 peptide: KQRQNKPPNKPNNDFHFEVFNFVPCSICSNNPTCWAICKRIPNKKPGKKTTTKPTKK
The experiment in a line: ELISA, biotinylated peptide on avidin plate. For orientation: In an ELISA, binding on a coated surface is turned into a signal by an enzyme label.

Test [3] addresses T2, Sym-1706 (RSV G central conserved domain (CCD) peptide, type A 145-184) (Respiratory syncytial virus type A, N-terminal biotin).
T2 construct: Synthetic peptide, C-terminally truncated against Sym-1705
T2 peptide: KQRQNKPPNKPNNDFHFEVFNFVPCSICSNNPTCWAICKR
The test is described as follows: ELISA, biotinylated peptide on avidin plate.

For test [4], the target named is T3, Sym-1789 (RSV-G type B central region peptide 145-184) (Respiratory syncytial virus type B, N-terminal biotin).
T3 construct: Synthetic peptide, C-terminally truncated against Sym-1788
T3 peptide: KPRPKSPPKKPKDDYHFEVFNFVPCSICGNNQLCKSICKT
The experiment in a line: ELISA, biotinylated peptide on avidin plate.

B1: CB073.1L (antibody, V domains shown)
VH: QVQLVESGGGVVQPGRSLRLSCAASGFTFYNYAVHWVRQAPGKGLEWVAVISHDGVNKDYADSVKGRITLSRDNSKNTVYLQLNSLRPEDTAVYYCARDRSYYFGGSVFHLYFDYWGQGTLVTVSS
VL: QSVLTQPPSVSGAPGQRVIISCTGSSSNIGAGHDVHWYQQLPGTAPRLLIYANTNRPSGVPDRFSASKSGNSASLVITGLQAEDEADYFCQSHDSSLSGVLFGGGTKLTVL
notes: Tested as human IgG from the pCP9-lambda vector
Consider B1, for which the “Neutralization IC50 (ng/mL), plaque reduction assay, RSV B/18537” value in test [1] is 2.9 ng/mL. For the same molecule, the binding result in test [2], in test [3] and in test [4] was “binds” in each case.

B2: CB072.1L (antibody, V domains shown)
VH: QLQLQESGPGLVKPSETLSLTCTVSGGSISSNIHYWAWIRQTPGKGLEWIGYMFYGGVAFYNPSLKSRVAISVDTSKNQFSLRLTSASAADTAVYYCARVLVASTNWFDPWGQGTLVTVSS
VL: SYVLTQPPSVSVAPGGTARITCGGDNIGTKGVHWYQQKPGQAPVLVMYYNSDRPTGVPERFSGSNSGNTATLTISRLEAGDEADYYCHVWDSSGSDHVEVFGGGTKLTVL
notes: Tested as human IgG from the pCP9-lambda vector; also called CB072.IL
As to B2, in test [1], the “Neutralization IC50 (ng/mL), plaque reduction assay, RSV B/18537” value amounted to 2.7 ng/mL. The binding result in test [2], in test [3] and in test [4] was “binds” throughout.

B3: CB047.1 (antibody, V domains shown)
VH: EVQLVESGGGLVQPGGSLRLSCAASGFSFSNYAMSWVRQAPGKGLEWVSDISGSGNSTNFADSVKGRFTISRDNSKNTLYLQMSSLRAEDTAVYYCAKFRVPTYCVNGICYQGLPGFDIWGQGTMVTVSS
VL: DIQMTQSPSSLSASVGDRVTITCQASQDISDYLNWYQQKPGKAPKLLIYDASNLETGVPSRFSASGSGTDFTFTISSLQPEDIATYYCQHYHNLPPLFGGGTKVEIK
notes: Tested as human IgG from the pCP9-kappa vector
Regarding B3, the “Neutralization IC50 (ng/mL), plaque reduction assay, RSV B/18537” value in test [1] worked out at 4.7 ng/mL. Besides, the binding result in test [2], in test [3] and in test [4] was “binds” in each case.

B4: CB047.2 (antibody, V domains shown)
VH: EVQLVESGGGLVQPGGSLRLSCAASGFNFSNYAMSWVRQAPGKGLEWVSDISSSGKTTNSADSVKGRFTISRDNSKNTLFLQMSSLRADDTAVYYCAKFRVPTYCVNGICYQGLPGFDIWGQGTMVTVSS
VL: DIQMTQSPSSLSASVGDRVTITCQASQDISDYLNWYQQKPGKAPKLLIYDASNLETGVPSRFSASGSGTDFTFTISSLQPEDFATYYCQHYHNLPPLFGGGTKVEIK
notes: as for B3
With B4, the “Neutralization IC50 (ng/mL), plaque reduction assay, RSV B/18537” value in test [1] was determined as 8.9 ng/mL. For the same molecule, the binding result in test [2], in test [3] and in test [4] was “binds” in each case.

B5: CB017.3L (antibody, V domains shown)
VH: QVQLVESGGGVVQPGGSLRLSCEASGFMFSVYAIHWVRQAPGKGLEWVAVIWHDGSNKYYADSVKGRFTISRDNSKDTMYLQMKTLRVDDTAVYYCARDPIVGSKTDGMDVWGQGTTVTVSS
VL: SYELTQPPSVSVSPGQTARITCSGDALADQYAYWYQQKPGQAPVMVIFKDNERPSGIPERFSGSSSGTTVTLTVSGVQSEDEADYYCQSVDSSGTYWMFGGGTKLTVL
notes: Tested as human IgG expressed in 293-F cells from the pCP9-lambda vector
B5: the “Neutralization IC50 (ng/mL), plaque reduction assay, RSV B/18537” value in test [1] is 2 ng/mL. Besides, the binding result in test [2] and in test [3] was “binds” throughout.

B6: CB071.1L (antibody, V domains shown)
VH: QVQLVQSGAEVKKPGSSVRVSCKASGGTFSRYVITWVRQAPGQGLEWMGGSIPIIDTSTYAQKFQDRVTITADKSTSTVYLELSSLRPEDTAIYYCAKVFFFSNSSGPPTEGPAFDVWGQGTMVTVSS
VL: SYELTQPPSVSVSPGQTASITCSGHELGDKYVSWYQQKPGQSPVLLIYQDTNRPAGIPERFSGSNSGSTAFLTISATQAMDEADYYCQAWDNSHVVFGGGTKLTVL
notes: as for B1
Consider B6, for which the “Neutralization IC50 (ng/mL), plaque reduction assay, RSV B/18537” value in test [1] is 5.4 ng/mL. Besides, the binding result in test [2], in test [3] and in test [4] was “binds” throughout.

The values are drawn from US20160145322A1 (CRUCELL HOLLAND B V, published 2016).
